Data from article PMC8124314.
Like-named read-outs stand apart in the source and are kept apart here.

Key:
[1] = target: E-cadherin (Homo sapiens) (UniProt P12830); settings: cited from earlier work
[2] = target: MBP-fused epithelial cadherin (MBP-eCAD); experiment: SPR
[3] = target: MBP-fused epithelial cadherin (MBP-eCAD); experiment: SPR; remark: listed apart in the source

For E-cadherin (from UniProt P12830), the Kd [1] is given as 100 µM.
“MBP-fused epithelial cadherin (MBP-eCAD) (domain or fragment)” gave a Kd [2] of 0.197 µM, a koff [2] of 0.000696 s⁻¹ and a kon [2] of 4650 M⁻¹ s⁻¹. It also gave a Kd [3] of 197 µM.
